Like-named read-outs stand apart in the source and are kept apart here.
Biological target: T1, S-100b (Homo sapiens, UniProt P04271)
T1 sequence (P04271 2-92 limits assumed): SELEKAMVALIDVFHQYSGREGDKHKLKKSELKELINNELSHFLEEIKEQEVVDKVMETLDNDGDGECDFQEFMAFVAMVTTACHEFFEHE
Test: Saturation binding of sRAGE to immobilized S-100b (ELISA, Scatchard analysis)
Experimental: Generally, the protocol for detection of RAGE modulators is as follows. RAGE ligand (e.g. S-100b, β-amyloid, CML) is diluted to 5 μg/ml in buffer A (fixing buffer) (100 mM Na2CO3/NaHCO3, pH 9.8) and 100 μl added to microtiter plate wells and allowed to incubate overnight at 4° C. to allow the ligand to become fixed to the surface of the wells. Wells are then washed 3 times with 400 μl/well buffer C (wash buffer) (20 mM Imidazole, 150 mM NaCl, pH 7.2), with a 5 second soak in buffer C between each wash. Buffer B (blocking buffer) (50 mM Imidazole pH 7.2, 5% BSA, 5 mM CaCl2, 5 mM MgCl2) is then added to the wells and allowed to incubate for 2 hours at 37° C. to block nonspecific protein binding sites. The blocking buffer is then aspirated from the wells, and the plate washed 3 times (400 μl/well) with buffer C, with a 5 second soak in buffer C between each wash. The compound of interest, 25 μl dissolved in 2% DMSO FAC (Final Assay Concentration ) and sRAGE (75 μl) (2.2×10^−4 mg/ml FAC) are then added to each well, and incubated 1 hour at 37° C. Meanwhile, polyclonal antibody or monoclonal antibody for sRAGE (e.g. 3.0×10^−3 mg/ml and 1.9×10^−4 mg/ml FAC, respectively), biotinylated goat F (ab′)2 anti-mouse IgG (e.g. 8.0×10^−4mg/ml FAC) (Biosource International, Camarillo, Calif. (TAGO)), and alkaline phosphatase labeled streptavidin (3.0×10^−3 mg/ml FAC) (ZYMED, San Francisco, Calif.) are added to 5 ml of buffer D (complex buffer) (50 mM Imidazole, pH 7.2; 0.2% BSA, 5 mM CaCl2, 5 mM MgCl2) in a 15 ml conical tube and allowed to incubate 30 minutes at room temperature.
The solution containing sRAGE and the compound of interest is then aspirated from each well, and after 3 washes with wash buffer, with a 5 second soak between each wash, the anti-sRAGE:IgG:streptavidin-alkaline phosphatase complex is added to each well (100 μl complex per well). After 1 hour at room temperature, the solution in each well is aspirated, and the wells washed 3 times, with 5 second soaks between each wash.
The alkaline phosphatase substrate, para-nitrophenyl phosphate (pNPP) (1 mg/ml in 1 M diethanolamine, pH 9.8), is added and the color allowed to develop for 1 hr in the dark. After the addition of 10 μl stop solution per well (0.5 N NaOH; 50% methanol), the OD405 is measured.
In the experiment shown in FIG. 10, wells were coated by incubation with 500 ng/well S-100b overnight, and after washing, sRAGE diluted in buffer D added to the final concentrations shown. […]
The utility of the assay for detecting compounds which antagonize both low and high affinity RAGE binding domains is shown in FIGS. 8-11. […] The amount of sRAGE bound to the immobilized ligand was detected using anti-sRAGE polyclonal or monoclonal antibody (3.0×10^−3 mg/ml and 1.9×10^−4 mg/ml FAC, respectively) and the development system as described in Example 1. Plots were linearized by means of Scatchard analysis and values for Kd and Bmax determined. Statistical analysis of experimental precision was determined by utilizing GraghPad Prisam version 3 software (GraphPad Software, Inc. San Diego, Calif.).
Both low and high affinity binding of sRAGE to S-100b are detected using the assay method of the invention. […] After washing, sRAGE comprising a final concentration ranging from about 0.3 to 10 nM was added to each well, and after 1 hour at 37° C., bound sRAGE was measured by the addition of polyclonal antibody complex. […]

- Kd (S-100b 50 ng/well, sRAGE about 0.3 to 10 nM, FIG. 8, read-out: Kd, high affinity binding component): ~6 nM
- Kd (S-100b 100 ng/well, sRAGE about 0.3 to 10 nM, FIG. 9, read-out: Kd, high affinity binding component): ~2 nM
- Kd (S-100b 500 ng/well, four separate determinations, FIG. 10, read-out: Kd value): 60 nM
- Kd (S-100b 500 and 100 ng/well, sRAGE 24 to 480 nM and 5 to 80 nM, FIGS. 10 and 11, read-out: Kd, low affinity binding site): ~60 nM
- Kd (sRAGE 0.3 to 10 nM, FIGS. 8 and 9, read-out: Kd, high affinity binding site): 2 to 6 nM
Substance: sRAGE: soluble, extracellular portion of RAGE, as defined by the amino acid sequence SEQ ID NO: 2
